This passage reports Kd results from patent publication US20110229406A1.

The assay deals with HER-3 (human, on cells) (human) (UniProt P21860). In words: indirect FACS Scatchard analysis on cells.

pKd: −log10 of the molar value.

In general, pKd refers to the Kd on a negative log10 scale, so that one unit is a factor of ten. Read a low pKd as a high Kd. Consider U1-46 (antibody), for which the pKd was 7.86.
